According to patent US7049398B1, “Melanocortin metallopeptide constructs, combinatorial libraries and applications” (Palatin Technologies, Inc., priority 1999, dated 2006):
[ ]: non-standard residue; d: D form. The star is where a group is joined. Hydrocinnamoyl = O=C(CCc1ccccc1)*; Nle = CCCC[C@H](N)C(=O)O

Assays:
[1] = tested on: Human MC4-R or B-16 cells; test: cAMP stimulation assay in absence and presence of alpha-MSH; assay type: cell-based, human; mouse; details: 1 h 37° C., 0.2 mM IBMX
Procedure: For selected peptides of this invention, a cAMP assay was also performed. Human MC4-R or B-16 cells were grown to confluence in 96 well plates (plating approximately 250,000 cells per well). Identical sets of cells in triplicate were treated with 0.2 mM isobutylmethylxanthine (IBMX) and the chosen concentration of the rhenium metal ion-complexed peptide and the rhenium metal ion-complexed peptide in the presence of 20 nM alpha-MSH. Cells similarly treated but with only 20 nM alpha-MSH served as positive control. A buffer blank, as a negative control, was also included. Incubation was for one hour at 37° C. after which the medium was aspirated and the cells extarted with 150 microliters of HCl. Total cAMP accumulated in 100 microliters of this solution was quantitated using a commercially available low pH cAMP assay kit (R&D Systems) by the procedure specified by the kit supplier. […] The rhenium metal ion-complexed peptide showing cAMP accumulation in the same range as or higher than the positive control (buffer blank in the presence of alpha-MSH) are considered to be agonist ligands. The rhenium metal ion-complexed peptide showing accumulation in the same range as the negative control (buffer blank in the absence of alpha-MSH) are ineffective at the test concentration if the result is similar to the positive control where alpha-MSH is also present in the assay. The rhenium metal ion-complexed peptide showing accumulation in the same range as the negative control are considered to be antagonists if there is inhibition in cAMP when alpha-MSH is present in the assay. Values above the positive control are due to potent agonism, experimental variance or synergistic agonistic effects of rhenium metal ion-complexed peptide and alpha-MSH. […]

[2] = target: T1, hMC4-R (Homo sapiens, UniProt P32245); test: Competitive inhibition binding assay, 125I-NDP-alpha-MSH, hMC4-R membranes; details: 0.4 nM 125I-NDP-alpha-MSH
T1 construct: expressed in transfected cells; host or cells: 293 cells
Procedure: (§1) Representative Peptides of this Invention. Representative peptides of this invention were made using library and synthesis methods described herein, and selected peptides were tested using a binding assay. […] The peptides were synthesized using conventional peptide synthesis methods, and were complexed with rhenium using the methods described herein.
(§2) The competitive inhibition binding assay was conducted using membranes prepared from hMC4-R and B-16 mouse melanoma cells (containing MC1-R) using 0.4 nM ^125I-NDP-alpha-MSH (New England Nuclear, Boston, Mass., USA) in 50 mM HEPES buffer containing 1 mM MgCl2, 2 mM CaCl2, and 5 mM KCl, at pH 7.2. The assay tube also contained a chosen concentration of the test peptide of this invention, complexed to a rhenium metal ion as indicated, for determining its efficacy in inhibiting the binding of ^125I-NDP-alpha-MSH to its receptor. Non-specific binding was measured by complete inhibition of binding of ^125I-NDP-alpha-MSH in the assay with the presence of 1 μM alpha-MSH. Incubation was for 90 minutes at room temperature, after which the assay mixture was filtered and the membranes washed three times with ice cold buffer. The filter was dried and counted in a gamma counter for remaining radioactivity bound to the membranes. 100% specific binding was defined as the difference in radioactivity (cpm) bound to cell membranes in the absence and presence of 1 μM alpha-MSH. The cpm obtained in presence of test compounds were normalized with respect to 100% specific binding to determine the percent inhibition of ^125I-NDP-alpha MSH binding. […]

[3] = target: T2, MC1-R (B-16 mouse melanoma cells) (Mus musculus, UniProt Q01727); test: Competitive inhibition binding assay, 125I-NDP-alpha-MSH, B-16 mouse melanoma cell membranes; details: 0.4 nM 125I-NDP-alpha-MSH
T2 construct: B-16 mouse melanoma cells (containing MC1-R); endogenous in cells; host or cells: B-16 mouse melanoma cells
Procedure: as §1, §2

[4] = 1 μM test compound + 20 nM alpha-MSH
[5] = Conc. cut off 1 μM test peptide
[6] = 10 μM test compound + 20 nM alpha-MSH
[7] = Conc. cut off 10 μM, hMC4-R membranes
[8] = Conc. cut off 10 μM, B-16 mouse melanoma cell membranes
[9] = Conc. cut off 1 μM, hMC4-R membranes
[10] = Conc. cut off 1 μM, B-16 mouse melanoma cell membranes

T2 sequence (Q01727 whole entry): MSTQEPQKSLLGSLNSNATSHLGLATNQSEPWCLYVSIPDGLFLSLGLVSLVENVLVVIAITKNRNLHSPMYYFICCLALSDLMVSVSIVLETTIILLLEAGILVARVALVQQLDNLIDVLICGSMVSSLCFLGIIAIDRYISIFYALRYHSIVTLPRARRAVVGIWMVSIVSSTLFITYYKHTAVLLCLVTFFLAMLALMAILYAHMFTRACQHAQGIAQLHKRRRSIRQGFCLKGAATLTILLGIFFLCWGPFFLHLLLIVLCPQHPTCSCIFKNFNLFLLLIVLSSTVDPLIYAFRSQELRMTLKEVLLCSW
T1 sequence (P32245 whole entry): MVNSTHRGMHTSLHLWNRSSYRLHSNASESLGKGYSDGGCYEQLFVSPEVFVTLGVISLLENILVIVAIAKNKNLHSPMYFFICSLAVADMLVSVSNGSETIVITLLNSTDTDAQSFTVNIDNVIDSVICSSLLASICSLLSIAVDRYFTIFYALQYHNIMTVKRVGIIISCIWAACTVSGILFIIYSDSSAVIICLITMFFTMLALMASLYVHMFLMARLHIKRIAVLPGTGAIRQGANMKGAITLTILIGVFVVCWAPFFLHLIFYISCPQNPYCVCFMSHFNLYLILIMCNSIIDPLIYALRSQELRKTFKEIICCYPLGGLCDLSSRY

Substance	cAMP Accumulation, Presence of α-MSH [1, 4] [pmol/mL]	cAMP Accumulation, Absence of α-MSH ([1]; 1 μM test compound) [pmol/mL]	% Inhibition MC4-R [2, 5] [%]	% Inhibition MC1-R (B-16) [3, 5] [%]	cAMP Accumulation, Presence of α-MSH [1, 6] [pmol/mL]	cAMP Accumulation, Absence of α-MSH ([1]; 10 μM test compound) [pmol/mL]	% Inhibition MC4-R [2, 7] [%]	% Inhibition MC1-R (B-16) [3, 8] [%]	% Inhibition MC4-R [2, 9] [%]	% Inhibition MC1-R (B-16) [3, 10] [%]
PL-1842: metallopeptide of Table 1 (Ac-[Nle]AHRFWC-NH2; also: ReO[V] complex)	76	25	2	27	–	–	–	–	–	–
PL-838: metallopeptide of Table 1 (Ac-HFRCW-NH2; also: ReO[V] metal complex)	–	–	–	–	53	2	0	35	–	–
PL-1751: metallopeptide of Table 1 (Ac-HXRWC-NH2; not fully specified (residue 2); printed as Ac-L-His-L-(N-2′naphthalene)Phe-L-Arg-L-Trp-L-Cys-NH2; also: ReO[V] complex)	96	71	70	78	–	–	–	–	–	–
PL-1265: metallopeptide of Table 1 (Ac-EHGRWC-NH2; also: ReO[V] metal complex)	127	3	–	–	–	–	–	–	67	34
PL-1514 (Ac-RFFNFC-NH2; also: ReO[V] metal complex)	–	–	30	28	–	–	–	–	–	–
PL-1346: metallopeptide of Table 1 (Hydrocinnamoyl-HRCW-NH2; also: ReO[V] metal complex)	–	–	–	–	76	3	77	86	–	–
PL-1394 (Ac-HRWCF-NH2; also: ReO[V] metal complex)	–	–	–	–	–	–	59	84	0	27
